# Literature values, collected in paper PMC12326988, “Synthetic host defense peptide inhibits SARS-CoV-2 replication in vitro” (Antimicrobial Agents and Chemotherapy, 2025).
# B1: HD5 (peptide, UniProt Q01523 20-94, looked up)
# Defensin alpha 5: ESLQERADEATTQKQSGEDNQDLAISFAGNGLSALRTSGSQARATCYCRTGRCATRESLSGVCEISGRLYRLCCR
# modifications: Defensin-5
# System: binding of the SARS-CoV-2 RBD to its human ACE2 receptor
molecule,measurement,value
B1,"affinity, interference with binding of SARS-CoV-2 RBD to human ACE2",76.2 nM
